Assay results from patent US20140065163A1 (MERCK SERONO S A, published 2014).
Like-named read-outs stand apart in the source and are kept apart here.

T1: macaca GM-CSF (Macaca mulatta (identical in Macaca …, UniProt Q0MUT8 18-144 (Chlorocebus aethiops entry), limits assumed))
T1 chain: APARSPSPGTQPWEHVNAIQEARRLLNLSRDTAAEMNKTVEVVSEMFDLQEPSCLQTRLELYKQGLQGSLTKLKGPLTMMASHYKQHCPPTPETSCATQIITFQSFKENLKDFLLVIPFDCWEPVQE


Experiments:
[1] = molecular target: T1, macaca GM-CSF; test: cell-based or functional assay
[2] = molecular target: T2, human GM-CSF I117 (human, UniProt P04141 18-144); test: cell-based or functional assay
[3] = molecular target: T3, human GM-CSF T117 (human, UniProt P04141 18-144); test: cell-based or functional assay
[4] = molecular target: T1, macaca GM-CSF; test: cell-based or functional assay
[5] = molecular target: T2, human GM-CSF I117; test: cell-based or functional assay; remark: listed apart in the source
Target sequence in this assay (P04141 18-144 limits assumed): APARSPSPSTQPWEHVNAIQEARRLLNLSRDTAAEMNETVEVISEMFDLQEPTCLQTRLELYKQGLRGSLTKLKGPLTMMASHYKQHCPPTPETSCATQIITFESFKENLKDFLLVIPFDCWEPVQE

[6] = molecular target: T3, human GM-CSF T117; test: cell-based or functional assay; remark: listed apart in the source
Target sequence in this assay (P04141 18-144 I117T limits assumed): as the sequence (P04141 18-144 limits assumed) above, with I100T counted along it

[7] = molecular target: T1, macaca GM-CSF; test: cell-based or functional assay
[8] = molecular target: T2, human GM-CSF I117; test: cell-based or functional assay; remark: listed apart in the source
[9] = molecular target: T3, human GM-CSF T117; test: cell-based or functional assay; remark: listed apart in the source
[10] = molecular target: T1, macaca GM-CSF; test: cell-based or functional assay
[11] = molecular target: T2, human GM-CSF I117; test: cell-based or functional assay; remark: listed apart in the source
[12] = molecular target: T3, human GM-CSF T117; test: cell-based or functional assay; remark: listed apart in the source
[13] = molecular target: T2, human GM-CSF I117; test: KinExA, affinity in solution
Method: (§1) The 4K21 and reference antibodies were incubated at concentration below the expected Kd with serial dilutions of human GM-CSF I117 or T117, or macaca GM-CSF up to equilibrium. The remaining free antibody was measured in a Kinetic exclusion assay with the KinExA® instrument. Kd was calculated by fitting the curve of the signal obtained versus the GM-CSF concentrations. The average of two experiments using different IgG concentrations was calculated.

[14] = molecular target: T3, human GM-CSF T117; test: KinExA, affinity in solution
Method: as §1

[15] = molecular target: T1, macaca GM-CSF; test: KinExA, affinity in solution
Method: as §1

[16] = molecular target: T2, human GM-CSF I117; test: TF-1 proliferation assay and KinExA
[17] = molecular target: T4, human GM-CSF A117 mutant (human, UniProt P04141 18-144); test: competition ELISA: antibody on coated wild-type human GM-CSF, competitor soluble human GM-CSF A117; single condition, competitor concentration not shown
T4 construct: also called hGM-CSF A117; A117 protein

Fold improvement of 4K21 H93Y alone on I117 (IC50, TF-1 proliferation) [5]	Fold improvement of humanized parental 4K21 on I117 (IC50, TF-1 proliferation) [5]	IC50, inhibition of GM-CSF induced TF-1 proliferation (32 pM GM-CSF) [5]	Fold human T117/I117 (IC50, TF-1 proliferation) [6]	Fold improvement of 4K21 H93Y alone on T117 (IC50, TF-1 proliferation) [6]	Fold improvement of humanized parental 4K21 on T117 (IC50, TF-1 proliferation) [6]	IC50, inhibition of GM-CSF induced TF-1 proliferation (32 pM GM-CSF) [6]	Fold improvement of 4K21 H93Y alone on macaca (IC50, TF-1 proliferation) [7]	Fold improvement of humanized parental 4K21 on macaca (IC50, TF-1 proliferation) [7]	Fold macaca/human I117 (IC50, TF-1 proliferation) [7]	IC50, inhibition of GM-CSF induced TF-1 proliferation (32 pM GM-CSF) [7]	IC50, inhibition of GM-CSF induced IL-8 secretion in U937 cells (65 pM GM-CSF) [8]	IC50, inhibition of GM-CSF induced IL-8 secretion in U937 cells (65 pM GM-CSF) [9]	IC50, inhibition of GM-CSF induced IL-8 secretion in U937 cells (65 pM GM-CSF) [10]	Emax (%), inhibition of CD11b upregulation on neutrophils after GM-CSF stimulation [11]	IC50, inhibition of CD11b upregulation on neutrophils after GM-CSF stimulation [11]	Emax (%), inhibition of CD11b upregulation on neutrophils after GM-CSF stimulation [12]	Kd [13]	Kd [14]	Kd [15]	Binder	further results
0.2 fold	1 fold	121 pM	11.6 fold	0.1 fold	1 fold	1400 pM	0.1 fold	1 fold	6.6 fold	793 pM	170 pM	930 pM	1120 pM	65%	3.06 nM	68%	0.021 nM	0.164 nM	0.063 nM	humanized parental anti-GM-CSF 4K21 VH3-07.1AL+VK2-A3.2 hIgG1K antibody (MSB0010439) (antibody, V domains shown, Human IgG1 kappa; also called humanized parental 4K21 hVH hVL; parental 4K21) VH: EVQLVESGGGLVQPGGSLRLSCAASGFAFSAYDMSWVRQAPGKRLELVAYISSGGSSFYYPDTVKGRFTISRDNAKNSLYLQMNSLRAEDTAVYYCTRHLGFDYWGQGTLVTVSS VL: DIVMTQSPLSLPVTPGEPASISCRSSQSLVNSNGNTYLHWYLQKPGQSPQLLIYKVSNRFSGVPDRFSGSGSGTDFTLKISRVEAEDVGVYYCSQSTHVPPTFGQGTKVEIK	neutralizing the orthologs of cynomolgus and rhesus monkeys (TF-1 proliferation assay) [1]: < 10 fold; IC50, inhibition of GM-CSF induced TF-1 proliferation (32 pM GM-CSF) [2]: 98 pM; Fold human T117/I117 (IC50, TF-1 proliferation) [3]: 9.7 fold; IC50, inhibition of GM-CSF induced TF-1 proliferation (32 pM GM-CSF) [3]: 947 pM; Fold macaca/human I117 (IC50, TF-1 proliferation) [4]: 5.7 fold; IC50, inhibition of GM-CSF induced TF-1 proliferation (32 pM GM-CSF) [4]: 557 pM; IC50, inhibition of CD11b upregulation on neutrophils after GM-CSF stimulation [12]: 31.6 nM; fold preference for GM-CSF I117 versus T117 [16]: > 10 fold
1.3 fold	5.3 fold	23 pM	0.9 fold	8.3 fold	68 fold	21 pM	1.8 fold	15 fold	2.3 fold	53 pM	334 pM	263 pM	340 pM	79%	1.41 nM	97%	0.006 nM	0.005 nM	0.012 nM	MSB0010601 4K21 (4K21 hVH S55K-T62S hVL N28I-H34S-N53R-H93Y) (antibody, V domains shown, IgG; also called optimized 4K21 antibody) VH: EVQLVESGGGLVQPGGSLRLSCAASGFAFSAYDMSWVRQAPGKRLELVAYISSGGKSFYYPDSVKGRFTISRDNAKNSLYLQMNSLRAEDTAVYYCTRHLGFDYWGQGTLVTVSS VL: DIVMTQSPLSLPVTPGEPASISCRSSQSLVNSIGNTYLSWYLQKPGQSPQLLIYKVSRRFSGVPDRFSGSGSGTDFTLKISRVEAEDVGVYYCSQSTYVPPTFGQGTKVEIK	IC50, inhibition of CD11b upregulation on neutrophils after GM-CSF stimulation [12]: 2.03 nM; binding result [17]: binds
0.2 fold	0.9 fold	130 pM	10.8 fold	0.1 fold	1 fold	1410 pM	0.1 fold	0.7 fold	9.3 fold	1220 pM	–	–	–	–	–	–	0.017 nM	0.174 nM	0.104 nM	anti-GM-CSF 4K21 hIgG1K antibody (MSB0010259), recombinant chimeric 4K21 (antibody, V domains shown, Murine variable domains fused to human constant IgG1 heavy chain and kappa light chain domains) VH: EVQLVESGGGLVKSGGSLKLSCAASGFAFSAYDMSWVRQTPEKRLELVAYISSGGSSFYYPDTVKGRFTISRDNAKNTLYLQMSSLKSEDTAMYYCTRHLGFDYWGQGTTLTVSS VL: DVVMTQTPLSLPVSLGDQASISCRSSQSLVNSNGNTYLHWFLQKPGQSPKLLIYKVSNRFSGVPDRFSGSGSGTDFTLKISRVEAEDLGVYFCSQSTHVPPTFGGGTKLEIK	–
